# Test results published in publication PMC9410543, “Nonlytic cellular release of hepatitis A virus requires dual capsid recruitment of the ESCRT-associated Bro1 domain proteins HD-PTP and ALIX” (PLoS Pathogens, 2022).
# B1: peptide representing the C-terminal 20 residues of CHMP4B (peptide, UniProt Q9H444 205-224, looked up)
# peptide: KKKEEEDDDMKELENWAGSM
# notes: also called CHMP4 peptide; source: synthetic peptide
# Biological target: T1, 6XHis-tagged ALIX Bro1 protein (residues 1–392) (UniProt Q8WUM4 1-392)
# T1 construct: Bro1 domain of ALIX, residues 1-392; also called recombinant ALIX Bro1; recombinant Bro1; source: E. coli, recombinant
# T1 sequence (looked up): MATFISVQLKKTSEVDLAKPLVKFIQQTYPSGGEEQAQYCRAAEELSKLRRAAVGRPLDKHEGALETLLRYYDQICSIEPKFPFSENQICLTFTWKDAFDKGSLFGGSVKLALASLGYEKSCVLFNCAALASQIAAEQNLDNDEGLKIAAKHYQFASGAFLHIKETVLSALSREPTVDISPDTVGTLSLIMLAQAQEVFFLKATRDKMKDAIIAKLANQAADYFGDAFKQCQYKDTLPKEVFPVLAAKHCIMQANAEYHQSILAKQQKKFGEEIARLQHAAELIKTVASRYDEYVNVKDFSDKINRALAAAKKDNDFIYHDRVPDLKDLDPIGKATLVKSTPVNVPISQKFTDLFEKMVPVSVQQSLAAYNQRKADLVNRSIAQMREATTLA
# Test: pull-down
# Settings: both partners purified
binder,measurement,value
B1,binding result,binds
